# Data as given in article PMC4148960, “Sox2 acts as a transcriptional repressor in neural stem cells” (BMC Neuroscience, 2014).
# B1: radiolabelled Sox2 (in vitro translated) (natural protein)
# chain: not shown
# modifications: S^35-labelled
# notes: Sox2, wild type; also called S^35-labelled Sox2; WT Sox2; source: in vitro translated (TNT T7 kit, Promega)
# Target: T1, GST-fused Grg1 (UniProt Q62440 1-770)
# T1 construct: Grg1 (groucho-related gene 1); cloned into pGEX4T1; No purification before mixing with Sox2 is described; the fusion was collected on glutathione-sepharose after the incubation; also called GST-Grg1; source: E. coli BL21, induced with IPTG, bacteria lysed
# T1 sequence (Q62440 whole entry, the tested form may be a part): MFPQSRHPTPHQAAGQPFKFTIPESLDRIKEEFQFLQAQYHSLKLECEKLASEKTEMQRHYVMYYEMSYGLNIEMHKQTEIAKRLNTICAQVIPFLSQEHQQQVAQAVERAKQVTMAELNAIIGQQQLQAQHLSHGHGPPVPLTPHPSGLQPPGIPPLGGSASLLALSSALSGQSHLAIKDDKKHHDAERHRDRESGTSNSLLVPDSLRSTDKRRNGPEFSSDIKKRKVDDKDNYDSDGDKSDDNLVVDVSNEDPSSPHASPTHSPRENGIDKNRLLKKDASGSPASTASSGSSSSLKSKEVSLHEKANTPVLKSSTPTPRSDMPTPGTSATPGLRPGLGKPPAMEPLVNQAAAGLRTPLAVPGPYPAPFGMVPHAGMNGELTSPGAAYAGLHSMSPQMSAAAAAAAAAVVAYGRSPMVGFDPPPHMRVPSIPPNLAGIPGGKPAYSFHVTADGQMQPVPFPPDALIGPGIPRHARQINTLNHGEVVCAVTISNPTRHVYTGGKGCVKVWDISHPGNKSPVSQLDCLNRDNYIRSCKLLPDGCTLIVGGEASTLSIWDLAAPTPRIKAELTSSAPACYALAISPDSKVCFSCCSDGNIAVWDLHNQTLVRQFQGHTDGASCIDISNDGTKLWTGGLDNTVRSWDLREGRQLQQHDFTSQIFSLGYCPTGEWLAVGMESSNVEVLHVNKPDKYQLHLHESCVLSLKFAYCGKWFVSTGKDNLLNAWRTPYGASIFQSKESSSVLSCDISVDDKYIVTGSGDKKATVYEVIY
# Experiment: pull-down; data not shown: amounts of radiolabelled Sox2 pulled down by GST-Grg1 and GST-Grg5 compared
# Details: partners not purified
binder,measurement,value
B1,fold more Sox2 pulled down than by Grg5,~4 fold
